Test results as given in patent publication US6462173B1, “Inhibitors of phosphoserine and phosphothreonine-proline-specific isomerases” (Max-Planck-Gesellschaft zur Forderung der, priority 1997, dated 2002).

Legend:
AEPF-pNA = system: T1, AEPF-pNA
T1 sequence: AEPFNA

AAPF (peptide substrate) = system: T2, AAPF (peptide substrate)
T2 sequence: AAPF

With GST-Pin1^H59A the PPIase activity (AEPF-pNA) was “The PPIase activity of Pin1^H59A was barely detectable against either peptide substrate” and the PPIase activity (AAPF (peptide substrate)) was “The PPIase activity of Pin1^H59A was barely detectable against either peptide substrate”.
